From patent US20180118808A1 (CALIFORNIA INSTITUTE FOR BIOMEDICAL RESEARCH, published 2018)

How the values were obtained:
[1] = target: T1, E4 Chimeric Receptor; experiment: cell-based or functional assay
T1 chain: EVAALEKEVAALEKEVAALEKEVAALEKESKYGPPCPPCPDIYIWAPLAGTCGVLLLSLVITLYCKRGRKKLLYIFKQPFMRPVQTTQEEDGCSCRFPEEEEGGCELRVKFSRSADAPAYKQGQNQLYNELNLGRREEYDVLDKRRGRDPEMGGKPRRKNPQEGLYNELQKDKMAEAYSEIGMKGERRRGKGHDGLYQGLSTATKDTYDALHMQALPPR

[2] = target: T2, K4 Chimeric Receptor; experiment: cell-based or functional assay
T2 chain: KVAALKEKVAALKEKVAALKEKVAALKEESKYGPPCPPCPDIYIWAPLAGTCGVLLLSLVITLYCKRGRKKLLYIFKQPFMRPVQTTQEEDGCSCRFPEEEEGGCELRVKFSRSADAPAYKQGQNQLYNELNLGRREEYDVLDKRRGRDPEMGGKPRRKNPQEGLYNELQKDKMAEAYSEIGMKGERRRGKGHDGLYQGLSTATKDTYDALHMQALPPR

Binder	EC50 (nM) of switch in cytotoxicity assay (LDH release), E4 CAR-T cells against CD19-positive Raji luc cells [1] [nM]	EC50 (nM) of switch in cytotoxicity assay (LDH release), K4 CAR-T cells against CD19-positive Raji luc cells [2] [nM]
Fmc63 HCCT K4 switch (Fab, V domains shown) VH: EVKLQESGPGLVAPSQSLSVTCTVSGVSLPDYGVSWIRQPPRKGLEWLGVIWGSETTYYNSALKSRLTIIKDNSKSQVFLKMNSLQTDDTAIYYCAKHYYYGGSYAMDYWGQGTSVTVSS VL: DIQMTQTTSSLSASLGDRVTISCRASQDISKYLNWYQQKPDGTVKLLIYHTSRLHSGVPSRFSGSGSGTDYSLTISNLEQEDIATYFCQQGNTLPYTFGGGTKLEIKR	0.00432	
Fmc63 HCCT E4 switch (Fab, V domains shown) VH: EVKLQESGPGLVAPSQSLSVTCTVSGVSLPDYGVSWIRQPPRKGLEWLGVIWGSETTYYNSALKSRLTIIKDNSKSQVFLKMNSLQTDDTAIYYCAKHYYYGGSYAMDYWGQGTSVTVSS VL: DIQMTQTTSSLSASLGDRVTISCRASQDISKYLNWYQQKPDGTVKLLIYHTSRLHSGVPSRFSGSGSGTDYSLTISNLEQEDIATYFCQQGNTLPYTFGGGTKLEIKR		0.0507
